Data from PMC7841149.

Target: integrin α5 on preosteoblastic MC3T3-E1 cells (mouse (endogenous in MC3T3-E1)) (UniProt P11688)
UniProt P11688, sequence (P11688 45-1053): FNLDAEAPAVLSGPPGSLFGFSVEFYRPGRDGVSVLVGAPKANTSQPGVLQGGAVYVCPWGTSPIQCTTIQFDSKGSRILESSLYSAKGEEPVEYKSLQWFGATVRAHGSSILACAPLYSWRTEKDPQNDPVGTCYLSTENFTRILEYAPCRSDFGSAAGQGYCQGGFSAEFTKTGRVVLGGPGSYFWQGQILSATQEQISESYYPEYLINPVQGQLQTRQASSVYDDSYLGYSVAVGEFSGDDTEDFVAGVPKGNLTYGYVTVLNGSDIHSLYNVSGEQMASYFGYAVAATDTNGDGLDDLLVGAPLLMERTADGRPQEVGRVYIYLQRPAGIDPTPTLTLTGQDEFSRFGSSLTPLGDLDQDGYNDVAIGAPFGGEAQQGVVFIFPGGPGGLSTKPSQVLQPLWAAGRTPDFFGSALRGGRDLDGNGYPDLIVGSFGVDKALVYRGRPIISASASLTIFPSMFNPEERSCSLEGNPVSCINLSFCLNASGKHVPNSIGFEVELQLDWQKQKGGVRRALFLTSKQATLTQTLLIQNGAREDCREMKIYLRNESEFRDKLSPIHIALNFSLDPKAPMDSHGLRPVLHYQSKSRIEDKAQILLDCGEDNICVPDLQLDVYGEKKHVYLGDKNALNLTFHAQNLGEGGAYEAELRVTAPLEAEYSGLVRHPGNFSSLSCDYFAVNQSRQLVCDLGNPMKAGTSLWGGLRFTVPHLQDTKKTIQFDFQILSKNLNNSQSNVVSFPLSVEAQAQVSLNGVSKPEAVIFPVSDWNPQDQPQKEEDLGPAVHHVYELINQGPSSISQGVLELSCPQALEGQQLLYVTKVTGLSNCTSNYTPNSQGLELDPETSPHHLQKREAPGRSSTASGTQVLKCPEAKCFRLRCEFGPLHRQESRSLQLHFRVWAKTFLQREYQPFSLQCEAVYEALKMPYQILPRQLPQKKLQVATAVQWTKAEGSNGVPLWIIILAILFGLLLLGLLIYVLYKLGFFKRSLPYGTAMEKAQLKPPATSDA

Substance: connective tissue growth factor (CTGF), recombinant (from UniProt P29279 27-349) (ligand)
- forward migration index (FMI) of MC3T3-E1 cells toward a gradient of 150 ng/ml CTGF with neutralizing integrin α5 antibody (5 μg/ml pretreatment, 15 μg/ml in the reservoir), 12 h: 0.02
- forward migration index (FMI) of MC3T3-E1 cells toward a gradient of 150 ng/ml CTGF, μ-slide chemotaxis chamber, 12 h, CTGF group without antibody: 0.5
- migration distance of MC3T3-E1 cells toward a gradient of 150 ng/ml CTGF with neutralizing integrin α5 antibody, 12 h: 129 μm
- migration distance of MC3T3-E1 cells toward a gradient of 150 ng/ml CTGF, 12 h, CTGF group without antibody: 162 μm
- velocity of MC3T3-E1 cells migrating toward a gradient of 150 ng/ml CTGF with neutralizing integrin α5 antibody, 12 h: 0.25 μm/min
- velocity of MC3T3-E1 cells migrating toward a gradient of 150 ng/ml CTGF, 12 h, CTGF group without antibody: 0.32 μm/min
